Measured values: article PMC5431157

What was measured:
[1] = molecular target: human thrombin (human) (UniProt P00734); test: enzyme inhibition kinetics (chromogenic substrate S-2238); 0.1 nM thrombin, 15 µM S-2238, sculptin 0-500 pM; 50 mM phosphate, 150 mM NaCl, 0.1% PEG 6000, pH 7.4, 37 °C; fractional steady-state velocities fitted to Morrison's tight binding equation
[2] = molecular target: human thrombin (human) (UniProt P00734); test: enzyme inhibition kinetics (chromogenic substrate S-2238); 0.1 nM thrombin added to sculptin (0-80 pM) and S-2238 at different concentrations; 50 mM phosphate, 150 mM NaCl, 0.1% PEG 6000, pH 7.4, 37 °C; Hanes-Woolf plot, intercepts against inhibitor concentration, confirmed by non-linear regression for competitive inhibition
[3] = molecular target: human thrombin (human) (UniProt P00734)
[4] = molecular target: human thrombin (human) (UniProt P00734); remark: listed apart in the source
[5] = molecular target: human thrombin (human) (UniProt P00734); test: enzyme inhibition kinetics (chromogenic substrate S-2238); 100 pM thrombin, 15 µM S-2238, sculptin 0-50 pM; 50 mM phosphate, 150 mM NaCl, 0.1% PEG 6000, pH 7.4, 37 °C; progress curves, kobs against sculptin concentration gives kon and koff; Ki = koff/kon

## recombinant sculptin (natural protein)
[1]
  Ki: 0.0195 nM
[2]
  Ki: 0.0183 nM
[3]
  residual activity of thrombin (100 pM, chromogenic substrate) with 1 nM sculptin, 6 h at 37 °C: 97%
[4]
  IC50 of inhibition of thrombin (0.1 nM) hydrolysis of 15 µM S-2238, dose-response fit: 0.0866 nM
[5]
  Ki: 0.0161 nM
  koff: 0.00065 s⁻¹
  kon: 4.04e+07 M⁻¹ s⁻¹
